{
  "source": "paper PMC8932414",
  "about": "“Latent TGFβ complexes are transglutaminase cross-linked to fibrillin to facilitate TGFβ activation” (Matrix Biology, 2022)",
  "molecular_target": "T1, CT1-SLC (LTBP1-CT region disulphide bonded to the TGFβ1 small latent complex) (UniProt Q14766 1347-1721; P01137 30-390, disulphide bonded to the SLC)",
  "T1 construct": "TGFβ1 small latent complex (proTGFβ1: prodomain LAP and growth factor); also called LTBP1-SLC; truncated version of the LLC; source: HEK293T, co-expressed from pBUD4.1, purified from serum free media (Anti-Flag M2 resin, SEC); not shown: Twin-Strep (chain inferred)",
  "T1 sequence (Q14766 1347-1721, chain 1 of 2)": "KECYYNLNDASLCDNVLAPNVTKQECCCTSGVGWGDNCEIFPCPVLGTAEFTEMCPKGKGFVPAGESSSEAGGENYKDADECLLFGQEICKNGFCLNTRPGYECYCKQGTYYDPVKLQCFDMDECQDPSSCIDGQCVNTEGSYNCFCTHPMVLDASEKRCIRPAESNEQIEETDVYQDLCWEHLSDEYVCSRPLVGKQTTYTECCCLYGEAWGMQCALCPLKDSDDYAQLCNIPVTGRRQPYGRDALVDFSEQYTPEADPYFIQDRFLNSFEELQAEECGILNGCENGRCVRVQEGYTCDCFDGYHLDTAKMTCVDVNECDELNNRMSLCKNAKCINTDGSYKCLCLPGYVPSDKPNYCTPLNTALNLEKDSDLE",
  "T1 sequence (P01137 30-390, chain 2 of 2)": "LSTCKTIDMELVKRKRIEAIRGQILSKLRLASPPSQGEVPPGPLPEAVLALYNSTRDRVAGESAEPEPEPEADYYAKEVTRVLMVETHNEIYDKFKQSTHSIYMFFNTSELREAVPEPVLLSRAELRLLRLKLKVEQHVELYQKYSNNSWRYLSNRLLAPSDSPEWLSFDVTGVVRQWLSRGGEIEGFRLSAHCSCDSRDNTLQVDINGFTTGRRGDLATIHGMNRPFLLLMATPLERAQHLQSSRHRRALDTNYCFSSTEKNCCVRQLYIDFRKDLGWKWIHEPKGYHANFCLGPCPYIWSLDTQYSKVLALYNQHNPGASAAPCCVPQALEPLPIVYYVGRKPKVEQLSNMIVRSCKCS",
  "assay": "BLI; OctetRED96; biotinylated CT1-SLC on streptavidin biosensors, PF3 100-6.25 nM; 10 mM HEPES, 150 NaCl, pH 7.4, 0.005% Tween-20, 25 °C; 1:1 Langmuir fit",
  "details": "both partners purified",
  "data": [
    {"binder": "fibrillin-1 N-terminal region PF3 (domain or fragment, fibrillin-1, N-terminal region called PF3; P35555-1 is printed for the AlphaFold input (115-287); PF1 and PF2 are two over-lapping constructs within this region; not verified; also called fibrillin1-PF3; fibrillin PF3 fragment) not shown", "values": [
      {"measurement": "Kd", "result": "~6", "unit": "nM"}
    ]}
  ]
}
